From patent publication US20210115142A1 (NANJING LEADS BIOLABS, published 2021)
Each block holds one binder with its values, some of them ahead of it.

Experiments:
[1] = molecular target: T1, Human PD-1 protein (ACRObiosystems, Cat #PD1-H5221) (human, UniProt Q15116 25-167); assay: ELISA, human PD-1 coated at 25 ng/well, detection with HRP goat anti-human F(ab')2, OD450-620 [right panel]
T1 construct: Bought soluble protein
Method: (§1) An ELISA assay was performed for determination of the relative binding capacity of the fusion proteins to human PD-1.
(§2) Human PD-1 protein (ACRObiosystems, Cat #PD1-H5221) was immobilized onto 96-well plates in PBS (Hyclone, Cat #SH30256.01) by incubation overnight at 4° C., 25 ng/well. The plates were then blocked by incubation with 1% BSA in PBS for one hour at 37° C. After blocking, the plates were washed three times with PBST (PBS containing 0.05% Tween 20). […] After binding, the plates were washed three times with PBST, incubated for one hour at 37° C. with peroxidase-labeled Goat anti-human F(ab′)² antibody (Jackson Immuno Research, Cat #109-035-097) diluted 1/20,000 in binding buffer, washed again, developed with TMB (ThermoFisher, Cat #34028) for 15 minutes, and then stopped with 1M H₂SO₄. Each plate well contained 50 μL of solution at each step.

[2] = molecular target: T1, Human PD-1 protein (ACRObiosystems, Cat …); assay: ELISA, human PD-1 coated at 25 ng/well, detection with HRP goat anti-human F(ab')2, OD450-620 [left panel]
Method: as §1, §2

Human TGFβ1 protein = molecular target: T2, Human TGFβ1 protein (human, UniProt P01137 279-390); assay: ELISA, human TGFβ1 coated at 10 ng/well, detection with HRP goat anti-human Fc, OD450-620 [left panel]
T2 construct: also called TGFβ1 protein (Sino, 10804-HNAC); Novoprotein Inc., Cat #CA59
Method: The plates were then blocked by incubation with 1% BSA in PBS for one hour at 37° C. After blocking, the plates were washed three times with PBST (PBS containing 0.05% Tween 20). […] After binding, the plates were washed three times with PBST, incubated for one hour at 37° C. with peroxidase-labeled Goat anti-human Fc antibody (Jackson Immuno Research, Cat #109-035-098) diluted 1/20,000 in binding buffer, washed again, developed with TMB (ThermoFisher Cat #34028) for 15 minutes, and then stopped with 1M H₂SO₄. The absorbance at 450 nm-620 nm was determined.

T1 sequence (Q15116 25-167 limits assumed): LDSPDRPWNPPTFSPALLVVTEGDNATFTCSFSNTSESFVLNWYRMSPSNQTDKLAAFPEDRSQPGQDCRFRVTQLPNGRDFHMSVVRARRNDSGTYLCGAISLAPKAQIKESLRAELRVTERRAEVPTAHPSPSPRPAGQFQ
T2 sequence (P01137 279-390 limits assumed): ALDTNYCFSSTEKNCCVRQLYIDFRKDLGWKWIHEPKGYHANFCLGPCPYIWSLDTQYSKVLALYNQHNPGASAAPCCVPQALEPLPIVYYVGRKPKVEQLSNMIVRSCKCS

- EC50 [1]: 99.5 pM
- EC50 [2]: 95.7 pM
B1: anti-PD-1 antibody 21F12-1F6 (antibody, human IgG1, kappa, L234A L235A, V domains shown)
VH: QMQLVQSGAEVKKPGASVKLSCKASGYIFQSYYIHWVRQAPGQGLEWVGVINPSGGSTTYAQKFQGRVTMTRDTSISTAYMELSRLRSDDTVVYYCARGSYSSGWDYYYYYGMDVWGKGTLVTVSS
VL: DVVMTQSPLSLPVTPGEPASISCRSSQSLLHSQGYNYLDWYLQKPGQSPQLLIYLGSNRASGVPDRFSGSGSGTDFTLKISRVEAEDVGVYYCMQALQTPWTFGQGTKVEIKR
notes: Positive control in the PD-1 ELISA; also called anti-human PD-1; antibody 21F12-1F6 in PCT/CN2019/087287

- EC50 (Human TGFβ1 protein): 65.2 pM
B2: human TGFβR2-hFc (ACRObiosystems, Cat #TG2-H5252) (Fc fusion, UniProt P37173 23-159, looked up)
chain: TIPPHVQKSVNNDMIVTDNNGAVKFPQLCKFCDVRFSTCDNQKSCMSNCSITSICEKPQEVCVAVWRKNDENITLETVCHDPKLPYHDFILEDAASPKCIMKEKKKPGETFFMCSCSSDECNDNIIFSEEYNTSNPD
notes: Bought Fc fusion; also called positive control; not shown: human Fc of the bought fusion
